# Laboratory results: patent US20180312539A1, “METHODS FOR PREPARING HIGH THROUGHPUT PEPTIDOMIMETICS, ORALLY BIOAVAILABLE DRUGS AND COMPOSITIONS CONTAINING SAME” (University of Southern California, priority 2011, published 2018)
# “And” between values parts separate entries of the source, which are not always exact repeats. Equal entries are not always repeated. *1 amine or outer side, *2 acyl side, *3 side chain or, on linkers, in order; H or OH if unused. Where a SMILES comes first, the peptide text is derived from it. Bridges are numbered along the chain shown (N, C = ends). Where no end group is shown, it is not given here. [ ]: non-standard residue; d: D form. The star is where a group is joined. 5FAM = O=C1OC2(c3ccc(O)cc3Oc3cc(O)ccc32)c2ccc(C(=O)*)cc21; Biotin = O=C1N[C@H]2[C@H](CS[C@H]2CCCCC(=O)*)N1; NMeW = CN[C@@H](Cc1c[nH]c2ccccc12)C(=O)O; Glutaryl = O=C(CCCC(=O)[*:2])[*:1]; NMeNva = CCC[C@H](NC)C(=O)O; NMeA = CN[C@@H](C)C(=O)O
# How the values were obtained:
# [1] = cited from earlier work
# [2] = parameters: species or system C57BL6 mice; conditions: mouse, in vivo
# Description: The following peptides were synthesized for oral administration: […](FAM) (SEQ ID NO: 14), […](FAM)DK(Palmitoleic acid) (SEQ ID NO: 15), and […](FAM) (SEQ ID NO: 16), wherein FAM is a lysine derivative containing fluorescein. All peptides were cyclized from the side chain to lysine to the N-terminus as previously described. Anesthetized C57BL6 mice had peptide administered at a dose of 10 mg/kg by oral gavage. After administration, mice were removed from isoflurane. At various time points, blood samples were taken by orbital bleeding as previously described. Peaks were normalized to a 15 minute time point from mice that had peptide administered by IV injection.
# The following peptides were synthesized for oral administration: […](FAM) (SEQ ID NO: 14), […](FAM) (SEQ ID NO: 16), […](FAM)DK(biotin) (SEQ ID NO: 38), and […](FAM)DK(Palmitoleic acid) (SEQ ID NO: 15). All peptides were cyclized from the side chain to lysine to the N-terminus as previously described in Millward, S. W. et al. (2007) ACS Chem. Biol. 2:625. Anesthetized C57BL6 mice had peptide administered at a dose of 10 mgs/Kg by oral gavage. After administration, mice were removed from isoflurane. At various time points, blood samples were taken by orbital bleeding as previously described. Peaks were normalized to a 20 minute time point from mice that had peptide administered by IV injection. Area under the curve was analyzed by Graphpad 5.0.
# In addition to accessing intracellular targets in cell culture, deriving a simple modification that would facilitate oral bioavailability of peptidic ligands would be greatly beneficial for therapeutic development. Intestinal absorption of both fatty acids and biotin is nearly 100% efficient. Zempleni, J. and Mock, D. M. (1999) The American Journal of Clinical Nutrition 69:504. […] Applicants synthesized a protease resistant peptide with the sequence […]-mod (designated SUPR peptide) (SEQ ID NO: 50), where A is N-methyl alanine, the peptide is cyclized from lysine to the N-terminus, and K(mod) is lysine with a modified sidechain including either biotin or palmitoleic acid. Palmitoleic acid is a monounsaturated fatty acid chosen for its ability to bind human serum albumin, and its low melting point allowing for more favorable solubility of conjugated peptides as compared to […] fatty acid conjugates. This peptide was administered to mice at a dose of 10 mg/kg by oral gavage. At various time points, blood was taken from the mice by orbital bleeding. After processing, fluorescence was quantified and compared to the maximum signal obtained by IV injection of peptide at the same dose.
# [3] = Human serum digests; type: in vitro ADME; conditions: reconstituted human serum, 37° C
# Description: (§1) Delipidated/lyophilized human serum was purchased from Thermo Scientific and reconstituted as per manufacturer's instructions. 250 nmoles of peptide in 50 μLs of sodium phosphate buffer (pH=8.0) with 10% DMSO was added to 1 mL of reconstituted serum and incubated at 37° C. 100 μL aliquots were taken at various time points and quenched in 300 μLs of acetonitrile. Samples were spun down and decanted to remove precipitate followed by dilution in water to 1.5 mLs. Samples were then analyzed by HPLC as described in the protease resistance experiment.
# as §1, with “μL” for “μLs”, “mLs.” for “mLs. Samples were then analyzed by HPLC as described in the protease resistance experiment.”
# The human serum and human microsome stability of the Gαi1 binding SUPR peptide ([…] (SEQ ID NO: 7)) were compared to the peptides ability to bind to Her-2. Beginning with the human serum analysis, peptides were digested with 95% human serum at 37° C. Analysis was performed by HPLC. […] Therefore, intact peptide is only completely unmodified peptide. Digestions of SUPR, HMP, and PMP are show have lives very similar to SUPR. Digestion of PMP2 is in progress. Without being bound by theory, Applicants theorize that the fitting for HMP may have produced an artificially low half-life.
# [4] = PAMPA (parallel artificial membrane permeability assay); type: in vitro ADME; conditions: for Log Pe of peptide (biotinylated): biotin-labeled peptide (number + B), non-reducible biotin; for Log Pe of peptide (biotinylated) / Log Pe of peptide: PBS pH 7.4, 24 hrs; for Log Pe of peptide: unmodified peptide, room temperature; for Log Pe: peptide conjugated to biotin containing a reducible disulfide (RB), acceptor well reducing (10 mM DTT)
# Description: PAMPA assays were set up following manufacturer's instructions. Briefly, 1% phosphatidyl choline (Sigma) was dissolved in dodecane (Sigma) at 65° C. for 3 min. The membrane was applied to each well as per manufacturer's instructions. […] 100 μL of sample was put into each donor well. The acceptor wells contained 300 μL of a 5% DMSO in PBS solution. Passive diffusion was allowed to occur at room temperature for 24 hrs. […] Absorbance at 215 nm was monitored. The area under the peptide peak was integrated.
# The acceptor well contained 10 mM DTT as a reducing agent. Data was collected after 6, 12 and 24 hrs. Absorbance at 280 nm was analyzed. The following formula was used to calculate Log Pe: […]
# Applicants employed a parallel artificial membrane permeability assay (PAMPA) that will allow for the rapid screening of peptide passive diffusion across a phospholipid bilayer. (Schmidt, et al. (2003) J. Millipore Corporation Application Note AN1729EN00.). In this assay, two chambers are separated by a phospholipid bilayer supported on an inert membrane. Applicants chose to initially focus Applicants examination on peptide ligands developed to bind with high affinity to the heterotrimeric G-proteins Gαi1*GDP and Gα12*GDP. Ja, W. W., et al. (2004) Biochemistry 43:9265; Millward, S. W., et al. (2007) ACS Chem. Biol. 2:625; Fiacco, S. et al. (2008) ChemBioChem 9:2200. These ligands included variations in sequence, size, overall charge, and polarity as well as comparing linear and cyclic peptides, end and biotinylation. […] According to classical methods of increasing permeability. Pinski, C. A., et al. (2001) Advanced Drug Delivery Reviews 46:3. Applicants postulated that the removal of hydrogen bond donors by N-methylation should further increase the permeability of this peptide.
# [5] = molecular target: proteinase K (Parengyodontium album, UniProt P06873); conditions: immobilized proteinase K, 4° C; for Cyc t1/2: cyclic peptide; for Lin t1/2: linear peptide
# proteinase K, sequence (P06873 106-384): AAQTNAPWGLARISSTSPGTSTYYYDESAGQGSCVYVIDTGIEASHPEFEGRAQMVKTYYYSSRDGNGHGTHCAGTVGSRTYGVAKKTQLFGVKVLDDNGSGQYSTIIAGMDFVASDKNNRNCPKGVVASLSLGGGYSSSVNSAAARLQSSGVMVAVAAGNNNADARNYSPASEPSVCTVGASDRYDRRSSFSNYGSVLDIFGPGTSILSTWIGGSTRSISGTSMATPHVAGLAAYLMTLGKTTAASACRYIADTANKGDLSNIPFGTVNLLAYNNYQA
# Description: Immobilized chymotrypsin and proteinase K purchased from Sigma. 250 nmoles of peptide in DMSO were added to 50 mM sodium phosphate buffer (pH=8.0) with a final DMSO concentration of 2%. […] The graph was generated by fitting the data to a one phase exponential decay equation (GraphPad Prism 5.0).
# Protease resistance enhancement was then tested. The simplest solution for enhancing protease resistance would be the removal of amino acids recognized by protease K and chymotrypsin.
# Next the role of each of the N-methyl alanines was analyzed independently. […] For example sequence modifications, including N-methylation would be accomplished one amino acid at a time, walking the peptide from low protease stability to high stability. Whether this is a viable approach for making a peptide like SUPR was investigated. Towards that end, Applicants walked back from SUPR peptide to something closer to cycGIBP, and to determine if there was a gradual decrease in protease resistance. Towards that end, three peptides were synthesized. Two of them contained only one NMA (alanine was substituted for NMA), and the other had no NMA. It was hypothesized that if one could walk back to cycGIBP, then one would expect the loss of a single N-methyl to have some effect on reducing protease resistance, but to still be better than cycGIBP.
# [6] = molecular target: T1, chymotrypsin (Bos taurus, UniProt P00766); test: Protease resistance experiment, chymotrypsin digest; type: in vitro ADME
# T1 construct: purchased Sigma
# Description: Immobilized chymotrypsin and proteinase K purchased from Sigma.
# Protease resistance enhancement was then tested.
# Towards that end, three peptides were synthesized. […] The effects were dramatic and surprising.
molecule,measurement,setting,value
O=C(O)CCCC[C@@H]1SC[C@@H]2NC(=O)N[C@@H]21 [biotin],intestinal absorption efficiency,[1]; Zempleni and Mock (1999),~100%
same,oral bioavailability,[1]; as known in the field,~100%
CSCC[C@@H]1NC(=O)CCCC(=O)NCCCC[C@@H](C(=O)N[C@@H](CCCCNC(=O)c2ccc3c(c2)C(=O)OC32c3ccc(O)cc3Oc3cc(O)ccc32)C(=O)N[C@H](CCCCNC(=O)CCCC[C@@H]2SC[C@@H]3NC(=O)N[C@@H]32)C(=O)O)NC(=O)[C@H](CO)NC(=O)[C@H](Cc2c[nH]c3ccccc23)NC(=O)[C@H](CCC(N)=O)NC(=O)[C@H](C)N(C)C(=O)[C@H](Cc2ccc(O)cc2)NC(=O)[C@H](CCC(=O)O)NC(=O)[C@H](Cc2ccc(O)cc2)NC(=O)[C@H](C)N(C)C(=O)[C@H](Cc2ccc(O)cc2)NC(=O)[C@H](Cc2ccccc2)NC1=O [biotinylated peptide] (MFY[NMeA]YEY[NMeA]QWSKK(5FAM)[dK](Biotin)-OH; linker N-12 via Glutaryl; C-terminus assumed),bioavailability,[2]; 10 mg/kg,9.4%
same,time of maximal uptake,[2]; po,3 h
same,oral uptake efficiency,"[2]; po, 10 mg/kg",6.4%
"CC[C@H](C)[C@H](NC(=O)[C@@H](N)CCSC)C(=O)N[C@H](C(=O)N[C@@H](Cc1c[nH]c2ccccc12)C(=O)N[C@@H](Cc1ccc(O)cc1)C(=O)N[C@@H](CCC(=O)O)C(=O)N[C@@H](Cc1ccccc1)C(=O)N[C@H](C(=O)N[C@@H](C)C(=O)NCC(=O)N[C@H](C(=O)N[C@@H](CCCCN)C(N)=O)[C@@H](C)O)C(C)C)[C@@H](C)O [linGIBP, reference compound] (H-MITWYEFVAGTK-NH2)",half-life,[3],~504 s
CSCC[C@H](N)C(=O)N[C@@H](Cc1ccccc1)C(=O)N[C@@H](Cc1ccc(O)cc1)C(=O)N(C)[C@@H](C)C(=O)N[C@@H](Cc1ccc(O)cc1)C(=O)N[C@@H](CCC(=O)O)C(=O)N[C@@H](Cc1ccc(O)cc1)C(=O)N(C)[C@@H](C)C(=O)N[C@@H](CCC(N)=O)C(=O)N[C@@H](Cc1c[nH]c2ccccc12)C(=O)N[C@@H](CO)C(=O)N[C@@H](CCCCN)C(N)=O [linSUPR],half-life,[3],972 s
(N-MeNva)ITWYEFVAGTK ([NMeNva]ITWYEFVAGTK(Biotin)-NH2; N-terminus assumed; SMILES CCC[C@H](NC)C(=O)N[C@H](C(=O)N[C@H](C(=O)N[C@@H](Cc1c[nH]c2ccccc12)C(=O)N[C@@H](Cc1ccc(O)cc1)C(=O)N[C@@H](CCC(=O)O)C(=O)N[C@@H](Cc1ccccc1)C(=O)N[C@H](C(=O)N[C@@H](C)C(=O)NCC(=O)N[C@H](C(=O)N[C@@H](CCCCNC(=O)CCCC[C@@H]1SC[C@@H]2NC(=O)N[C@@H]21)C(N)=O)[C@@H](C)O)C(C)C)[C@@H](C)O)[C@@H](C)CC) [Peptide 9],Log Pe of peptide (biotinylated),[4],−7.4 ± −0.1
same,Log Pe of peptide,[4],−7.0 ± −0.1
"Cyclo-MITWYEFVAGTK (not fully specified (C-terminus, bridges); printed as Cyclo-MITWYEFVAGTK; also: cyclized, ring closure not given here) [Peptide 8]",Log Pe of peptide (biotinylated),[4],−6.5 and −6.5 ± −0.0
same,Log Pe,[4],−5.9
same,Log Pe of peptide,[4],−8.2 ± −0.2
MFYAYEYAQWSK,Cyc t1/2,[5],<12 s
same,Lin t1/2,[5],<12 s
same,Cyc t1/2,[6],<12 s
same,Lin t1/2,[6],<12 s
MITWYEFVAGTK [Peptide 7],Log Pe of peptide (biotinylated),[4],−6.6 ± −0.1
same,Log Pe of peptide,[4],−7.8 ± −0.1
"MITWYEFVAGTK [Lin column linGIBP, Cyc column cycGIBP, reference compound]",Cyc t1/2,[5],60 s
same,Lin t1/2,[5],<12 s
same,Cyc t1/2,[6],126 s
same,Lin t1/2,[6],19.8 s
MRLVWIVRSRHFGPRLRMAK (MRLVWIVRSRHFGPRLRMAK(Biotin)-NH2; N-terminus assumed; SMILES CC[C@H](C)[C@H](NC(=O)[C@H](Cc1c[nH]c2ccccc12)NC(=O)[C@@H](NC(=O)[C@H](CC(C)C)NC(=O)[C@H](CCCNC(=N)N)NC(=O)[C@@H](N)CCSC)C(C)C)C(=O)N[C@H](C(=O)N[C@@H](CCCNC(=N)N)C(=O)N[C@@H](CO)C(=O)N[C@@H](CCCNC(=N)N)C(=O)N[C@@H](Cc1c[nH]cn1)C(=O)N[C@@H](Cc1ccccc1)C(=O)NCC(=O)N1CCC[C@H]1C(=O)N[C@@H](CCCNC(=N)N)C(=O)N[C@@H](CC(C)C)C(=O)N[C@@H](CCCNC(=N)N)C(=O)N[C@@H](CCSC)C(=O)N[C@@H](C)C(=O)N[C@@H](CCCCNC(=O)CCCC[C@@H]1SC[C@@H]2NC(=O)N[C@@H]21)C(N)=O)C(C)C) [Peptide 11],Log Pe of peptide (biotinylated),[4],−6.0 ± −0.1
MSQTKRLDDQLYWWEYL (Biotin-MSQTKRLDDQLYWWEYL) [Peptide 10],Log Pe of peptide (biotinylated),[4],−6.2 and −6.2 ± −0.0
same,Log Pe,[4],−4.8
same,fold increase in peptide delivery,[4]; reducible vs nonlabile biotin conjugate,16 fold
same,Log Pe of peptide,[4],−8.4 ± −0.1
NNNNNDKLY(N-MeW)WEFL (Biotin-NNNNNDKLY[NMeW]WEFL) [Peptide 6],Log Pe of peptide (biotinylated),[4],−6.6 ± −0.1
same,Log Pe of peptide,[4],>−9.0
